The record followed here is the supplement of paper PMC10567573.

To fix the notation:
B1: DLC1 (parent)
chain: KRSWEEHVTHWMGQPFNSDDRNTA
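Also: lentivirally expressed fusions sorted by FACS into six bins by GFP to DsRed ratio, PSI derived from sequencing read proportions per bin multiplied by bin number.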

The data set covers variants of B1. Briefly: protein stability index of a GFP-peptide fusion (GPS, HEK-293T) (PSI 1-6); higher = more stable. As to conditions: c terminus: a fixed tail appended.
With KRSWEEHVTHWMGQFFNSDDRNTA [P15F], the protein stability index was found to be 2.78.

As for KRSWEEHVTHWMGQTFNSDDRNTA [P15T], the protein stability index stood at 2.29.

For KRSWEEHVTHWMGQWFNSDDRNTA [P15W], the protein stability index was 2.92.

As to KRSWEEHVTHWMGQMFNSDDRNTA [P15M], the protein stability index came to 2.17.

Turning to KRSWEEHVTHWMGQVFNSDDRNTA [P15V], the protein stability index turned out to be 2.27.

In the case of KRSWEEHVTHWMGQKFNSDDRNTA [P15K], the protein stability index was determined as 2.85.

On to KRSWEEHVTHWMGQQFNSDDRNTA [P15Q], for which the protein stability index is 2.1.

KRSWEEHVTHWMGQCFNSDDRNTA [P15C]: the protein stability index is 2.35.

As for KRSWEEHVTHWMGQLFNSDDRNTA [P15L], the protein stability index amounted to 3.4.

With KRSWEEHVTHWMGQNFNSDDRNTA [P15N], the protein stability index is 2.48.

As for KRSWEEHVTHWMGQAFNSDDRNTA [P15A], the protein stability index was determined as 2.95.

Take KRSWEEHVTHWMGQGFNSDDRNTA [P15G]: the protein stability index turned out to be 2.43.

Take KRSWEEHVTHWMGQEFNSDDRNTA [P15E]: the protein stability index amounted to 3.45.

As to KRSWEEHVTHWMGQSFNSDDRNTA [P15S], the protein stability index was 2.3.

Turning to KRSWEEHVTHWMGQYFNSDDRNTA [P15Y], the protein stability index came out at 2.79.

On to KRSWEEHVTHWMGQDFNSDDRNTA [P15D], for which the protein stability index was 1.63.

Turning to KRSWEEHVTHWMGQHFNSDDRNTA [P15H], the protein stability index came out at 2.66.

Turning to KRSWEEHVTHWMGQRFNSDDRNTA [P15R], the protein stability index worked out at 2.41.

Turning to KRSWEEHVTHWMGQIFNSDDRNTA [P15I], the protein stability index is 1.56.

As for KRSWEEHVTHWMGQPDNSDDRNTA [F16D], the protein stability index is 2.59.

On to KRSWEEHVTHWMGQPINSDDRNTA [F16I], for which the protein stability index amounted to 2.63.

Regarding KRSWEEHVTHWMGQPANSDDRNTA [F16A], the protein stability index came to 2.54.

In the case of KRSWEEHVTHWMGQPENSDDRNTA [F16E], the protein stability index is 3.08.

On to KRSWEEHVTHWMGQPCNSDDRNTA [F16C], for which the protein stability index is 2.66.

Turning to KRSWEEHVTHWMGQPGNSDDRNTA [F16G], the protein stability index turned out to be 3.14.

As for KRSWEEHVTHWMGQPHNSDDRNTA [F16H], the protein stability index is 2.77.

Regarding KRSWEEHVTHWMDQPFNSDDRNTA [G13D], the protein stability index turned out to be 2.19.

KRSWEEHVTHWMAQPFNSDDRNTA [G13A]: the protein stability index stood at 2.53.

With KRSWEEHVTHWMSQPFNSDDRNTA [G13S], the protein stability index turned out to be 2.63.

Consider KRSWEEHVTHWMCQPFNSDDRNTA [G13C], for which the protein stability index was found to be 2.1.

KRSWEEHVTHWMNQPFNSDDRNTA [G13N]: the protein stability index was 2.14.

Regarding KRSWEEHVTHWMWQPFNSDDRNTA [G13W], the protein stability index amounted to 1.95.

As to KRSWEEHVTHWMVQPFNSDDRNTA [G13V], the protein stability index came out at 3.04.

With KRSWEEHVTHWMRQPFNSDDRNTA [G13R], the protein stability index amounted to 2.23.

For the variant KRSWEEHVTHWMTQPFNSDDRNTA [G13T], the protein stability index was determined as 2.18.

Regarding KRSWEEHVTHWMIQPFNSDDRNTA [G13I], the protein stability index came to 2.25.

With KRSWEEHVTHWMEQPFNSDDRNTA [G13E], the protein stability index is 2.61.

As for KRSWEEHVTHWMHQPFNSDDRNTA [G13H], the protein stability index was determined as 2.56.

Take KRSWEEHVTHWMQQPFNSDDRNTA [G13Q]: the protein stability index came to 2.44.

As to KRSWEEHVTHWMFQPFNSDDRNTA [G13F], the protein stability index was found to be 1.82.

Turning to KRSWEEHVTHWMMQPFNSDDRNTA [G13M], the protein stability index is 2.44.

On to KRSWEEHVTHWMYQPFNSDDRNTA [G13Y], for which the protein stability index amounted to 2.08.

In the case of KRSWEEHVTHWMPQPFNSDDRNTA [G13P], the protein stability index was determined as 2.88.

Regarding KRSWEEHVTHWMKQPFNSDDRNTA [G13K], the protein stability index was determined as 2.13.

For the variant KRSWEEHVTHWMLQPFNSDDRNTA [G13L], the protein stability index turned out to be 2.73.

For the variant KRSWEEHVTHTMGQPFNSDDRNTA [W11T], the protein stability index came to 2.49.

As to KRSWEEHVTHYMGQPFNSDDRNTA [W11Y], the protein stability index worked out at 2.82.

KRSWEEHVTHQMGQPFNSDDRNTA [W11Q]: the protein stability index worked out at 2.12.

Regarding KRSWEEHVTHRMGQPFNSDDRNTA [W11R], the protein stability index was found to be 3.29.

As to KRSWEEHVTHNMGQPFNSDDRNTA [W11N], the protein stability index came out at 2.26.

For KRSWEEHVTHSMGQPFNSDDRNTA [W11S], the protein stability index came out at 2.53.

Take KRSWEEHVTHPMGQPFNSDDRNTA [W11P]: the protein stability index turned out to be 3.54.

For KRSWEEHVTHMMGQPFNSDDRNTA [W11M], the protein stability index worked out at 2.54.

Regarding KRSWEEHVTHLMGQPFNSDDRNTA [W11L], the protein stability index amounted to 2.85.

On to KRSWEEHVTHVMGQPFNSDDRNTA [W11V], for which the protein stability index is 3.19.

Turning to KRSWEEHVTHKMGQPFNSDDRNTA [W11K], the protein stability index is 3.61.

Turning to KRSWEEHVTHWNGQPFNSDDRNTA [M12N], the protein stability index is 2.79.

For KRSWEEHVTHWSGQPFNSDDRNTA [M12S], the protein stability index turned out to be 2.57.

As to KRSWEEHVTHWFGQPFNSDDRNTA [M12F], the protein stability index is 2.94.

Take KRSWEEHVTHWKGQPFNSDDRNTA [M12K]: the protein stability index came to 2.98.

On to KRSWEEHVTHWAGQPFNSDDRNTA [M12A], for which the protein stability index was found to be 2.44.

With KRSWEEHVTHWYGQPFNSDDRNTA [M12Y], the protein stability index came out at 3.21.

In the case of KRSWEEHVTHWGGQPFNSDDRNTA [M12G], the protein stability index was 2.63.

In the case of KRSWEEHVTHWVGQPFNSDDRNTA [M12V], the protein stability index is 2.73.

With KRSWEEHVTHWQGQPFNSDDRNTA [M12Q], the protein stability index was found to be 2.78.

On to KRSWEEHVTHWCGQPFNSDDRNTA [M12C], for which the protein stability index was 2.97.

As to KRSWEEHVTHWDGQPFNSDDRNTA [M12D], the protein stability index amounted to 2.7.

Turning to KRSWEEHVTHWLGQPFNSDDRNTA [M12L], the protein stability index was found to be 2.94.

Regarding KRSWEEHVTHWIGQPFNSDDRNTA [M12I], the protein stability index was 2.53.

In the case of KRSWEEHVTHWRGQPFNSDDRNTA [M12R], the protein stability index was 2.49.

As to KRSWEEHVTHWWGQPFNSDDRNTA [M12W], the protein stability index was 1.94.

As for KRSWEEHVTHWPGQPFNSDDRNTA [M12P], the protein stability index stood at 3.67.

For KRSWEEHVTHWTGQPFNSDDRNTA [M12T], the protein stability index is 3.34.

With KRSWEEHVTHWHGQPFNSDDRNTA [M12H], the protein stability index turned out to be 2.94.

In the case of KRSWEEHVTHWEGQPFNSDDRNTA [M12E], the protein stability index came out at 2.32.

For KRSWEEHVTHWMGNPFNSDDRNTA [Q14N], the protein stability index is 2.75.

In the case of KRSWEEHVTHWMGCPFNSDDRNTA [Q14C], the protein stability index came to 3.01.

Regarding KRSWEEHVTHWMGHPFNSDDRNTA [Q14H], the protein stability index was 2.36.

On to KRSWEEHVTHWMGPPFNSDDRNTA [Q14P], for which the protein stability index was 2.84.

As to KRSWEEHVTHWMGAPFNSDDRNTA [Q14A], the protein stability index was 3.23.

Consider KRSWEEHVTHWMGRPFNSDDRNTA [Q14R], for which the protein stability index worked out at 3.47.

In the case of KRSWEEHVTHWMGGPFNSDDRNTA [Q14G], the protein stability index stood at 2.29.

Take KRSWEEHVTHWMGDPFNSDDRNTA [Q14D]: the protein stability index is 2.69.

On to KRSWEEHVTHWMGEPFNSDDRNTA [Q14E], for which the protein stability index came to 1.71.

For KRSWEEHVTHWMGKPFNSDDRNTA [Q14K], the protein stability index was found to be 2.82.

As for KRSWEEHVTHWMGFPFNSDDRNTA [Q14F], the protein stability index was 2.65.

As to KRSWEEHVTHWMGMPFNSDDRNTA [Q14M], the protein stability index amounted to 2.34.

In the case of KRSWEEHVTHWMGYPFNSDDRNTA [Q14Y], the protein stability index was 2.6.

In the case of KRSWEEHVTHWMGSPFNSDDRNTA [Q14S], the protein stability index was found to be 2.37.

Take KRSWEEHVTHWMGVPFNSDDRNTA [Q14V]: the protein stability index was 3.15.

As to KRSWEEHVTHWMGTPFNSDDRNTA [Q14T], the protein stability index is 2.31.

Regarding KRSWEEHVTHWMGLPFNSDDRNTA [Q14L], the protein stability index came to 2.64.

As for KRSWEEHVTHWMGWPFNSDDRNTA [Q14W], the protein stability index stood at 2.03.

For KRSWEEHVTHWMGIPFNSDDRNTA [Q14I], the protein stability index turned out to be 2.44.
